Results: PMC5131575 (Biomaterials, 2016)

Biological target: Clathrin triskelions (bovine (purified from bovine brain), UniProt P49951 1-1675)
Test: SPR

Clathrin triskelions, sequence (P49951 whole entry): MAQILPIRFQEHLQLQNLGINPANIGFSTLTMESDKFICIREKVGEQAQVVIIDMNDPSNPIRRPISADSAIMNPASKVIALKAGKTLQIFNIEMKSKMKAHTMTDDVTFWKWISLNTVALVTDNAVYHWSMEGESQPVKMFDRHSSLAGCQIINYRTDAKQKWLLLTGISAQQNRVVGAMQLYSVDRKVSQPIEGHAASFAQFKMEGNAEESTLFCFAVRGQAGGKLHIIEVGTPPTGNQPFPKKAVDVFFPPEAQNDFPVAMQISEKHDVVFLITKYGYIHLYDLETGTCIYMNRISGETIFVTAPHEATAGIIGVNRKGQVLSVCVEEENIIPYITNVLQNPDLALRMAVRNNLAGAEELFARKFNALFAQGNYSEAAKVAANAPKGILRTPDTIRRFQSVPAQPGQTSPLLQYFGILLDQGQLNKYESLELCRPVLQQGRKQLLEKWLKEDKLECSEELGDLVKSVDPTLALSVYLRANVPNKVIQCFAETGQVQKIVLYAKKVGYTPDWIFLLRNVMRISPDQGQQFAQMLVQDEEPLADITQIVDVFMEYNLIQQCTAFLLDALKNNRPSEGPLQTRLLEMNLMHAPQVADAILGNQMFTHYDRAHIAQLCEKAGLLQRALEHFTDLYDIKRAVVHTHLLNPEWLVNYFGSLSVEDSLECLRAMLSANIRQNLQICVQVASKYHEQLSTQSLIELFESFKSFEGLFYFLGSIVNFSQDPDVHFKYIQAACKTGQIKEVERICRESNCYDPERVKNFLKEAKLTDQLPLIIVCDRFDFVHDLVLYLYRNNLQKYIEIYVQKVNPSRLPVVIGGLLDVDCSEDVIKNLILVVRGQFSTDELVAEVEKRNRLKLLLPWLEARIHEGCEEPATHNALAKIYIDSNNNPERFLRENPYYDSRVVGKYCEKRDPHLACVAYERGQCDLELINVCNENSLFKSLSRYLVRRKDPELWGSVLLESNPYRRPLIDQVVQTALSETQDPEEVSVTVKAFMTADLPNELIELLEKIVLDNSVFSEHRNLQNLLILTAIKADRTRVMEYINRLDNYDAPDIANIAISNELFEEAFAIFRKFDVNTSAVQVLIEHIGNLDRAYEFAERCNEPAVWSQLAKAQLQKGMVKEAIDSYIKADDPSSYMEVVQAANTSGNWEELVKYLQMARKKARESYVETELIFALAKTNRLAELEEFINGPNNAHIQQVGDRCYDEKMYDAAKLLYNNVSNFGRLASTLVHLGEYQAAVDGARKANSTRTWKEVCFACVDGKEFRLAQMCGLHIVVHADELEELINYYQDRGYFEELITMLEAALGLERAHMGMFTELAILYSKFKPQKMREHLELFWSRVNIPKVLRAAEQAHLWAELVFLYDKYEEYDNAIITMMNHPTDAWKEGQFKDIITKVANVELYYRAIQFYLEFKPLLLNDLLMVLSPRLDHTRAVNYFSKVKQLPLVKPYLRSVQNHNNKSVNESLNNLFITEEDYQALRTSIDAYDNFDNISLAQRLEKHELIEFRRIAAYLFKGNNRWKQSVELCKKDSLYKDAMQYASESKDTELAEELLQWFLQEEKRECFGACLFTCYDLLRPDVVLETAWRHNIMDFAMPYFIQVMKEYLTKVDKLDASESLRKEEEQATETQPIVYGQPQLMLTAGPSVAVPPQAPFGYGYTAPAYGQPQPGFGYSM

## PWDLW [GFP-Wbox]
  Kd: 3.9 µM
